Assay results as given in publication doi:10.1101/2021.02.19.432005 (bioRxiv, 2021).
Where two headings read alike, the source gives them in different places. Blank lines part the entries; values can stand above or below the molecule they belong to.

T1: Notch1^EGF33-NRR (mouse, UniProt Q01705 1267-1717)
T1 sequence: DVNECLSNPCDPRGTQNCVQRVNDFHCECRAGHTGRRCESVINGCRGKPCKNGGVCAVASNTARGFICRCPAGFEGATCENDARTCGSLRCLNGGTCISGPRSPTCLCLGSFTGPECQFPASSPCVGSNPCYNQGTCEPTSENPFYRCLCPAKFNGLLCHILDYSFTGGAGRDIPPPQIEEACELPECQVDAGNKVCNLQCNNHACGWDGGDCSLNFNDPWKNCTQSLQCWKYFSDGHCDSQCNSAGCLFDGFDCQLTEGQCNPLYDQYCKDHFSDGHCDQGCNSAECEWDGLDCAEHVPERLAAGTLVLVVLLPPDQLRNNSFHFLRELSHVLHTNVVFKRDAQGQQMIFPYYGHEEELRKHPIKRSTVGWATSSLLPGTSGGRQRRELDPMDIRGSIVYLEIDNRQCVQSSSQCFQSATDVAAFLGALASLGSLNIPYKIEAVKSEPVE

B1: Notch1 negative regulatory region (Notch1^NRR) (domain or fragment)
chain: EEACELPECQVDAGNKVCNLQCNNHACGWDGGDCSLNFNDPWKNCTQSLQCWKYFSDGHCDSQCNSAGCLFDGFDCQLTEGQCNPLYDQYCKDHFSDGHCDQGCNSAECEWDGLDCAEHVPERLAAGTLVLVVLLPPDQLRNNSFHFLRELSHVLHTNVVFKRDAQGQQMIFPYYGHEEELRKHPIKRSTVGWATSSLLPGTSGGRQRRELDPMDIRGSIVYLEIDNRQCVQSSSQCFQSATDVAAFLGALASLGSLNIPYKIEAVKSEPVE
B2: Jagged1^EGF8-11,Fc (Fc-tagged, covalently dimerized) (Fc fusion)
chain: DIDECASNPCLNGGHCQNEINRFQCLCPTGFSGNLCQLDIDYCEPNPCQNGAQCYNRASDYFCKCPEDYEGKNCSHLKDHCRTTTCEVIDSCTVAMASNDTPEGVRYISSNVCGPHGKCKSQSGGKFTCDCNKGFTGTYCHENINDCESNPCKNGGTCIDGVNSYKCICSDGWEGAHCE
B3: Jagged1^CRD,Fc (Fc-tagged, covalently dimerized) (Fc fusion)
chain: EVSGRSCITMGRVILDGAKWDDDCNTCQCLNGRVACSKVWCGPRPCRLHKSHNECPSGQSCIPVLDDQCFVRPCTGVGECRSSSLQPVKTKCTSDSYYQDNCANITFTFNKEMMSPGLTTEHICSELRNLNILKNVSAEYSIYIACEPSLSANNEIHVAISAEDIRDDGNPVKEITDKIIDLVSKRDGNSSLIAAVAEVRVQRRPLKNRTD
B4: Notch1^EGF8-13, C-terminally biotinylated SPR ligand (domain or fragment)
chain: EDVDECQLMPNACQNGGTCHNTHGGYNCVCVNGWTGEDCSENIDDCASAACFQGATCHDRVASFYCECPHGRTGLLCHLNDACISNPCNEGSNCDTNPVNGKAICTCPSGYTGPACSQDVDECALGANPCEHAGKCLNTLGSFECQCLQGYTGPRCEIDVNECISNPCQNDATCLDQIGEFQCICMPGYEGVYCEINTDECASSPCLHNGHCMDKINEFQCQCPKGFNGHLCQ
modifications: biotin on the C-terminal biotin acceptor peptide
B5: Jagged1^C2-EGF3,wt, C-terminally biotinylated SPR ligand (domain or fragment)
chain: ASGQFELEILSMQNVNGELQNGNCCGGVRNPGDRKCTRDECDTYFKVCLKEYQSRVTAGGPCSFGSGSTPVIGGNTFNLKASRGNDRNRIVLPFSFAWPRSYTLLVEAWDSSNDTIQPDSIIEKASHSGMINPSRQWQTLKQNTGIAHFEYQIRVTCDDHYYGFGCNKFCRPRDDFFGHYACDQNGNKTCMEGWMGPDCNKAICRQGCSPKHGSCKLPGDCRCQYGWQGLYCDKCIPHPGCVHGTCNEPWQCLCETNWGGQLCDKDLNYCGTHQPCLNRGTCSNTGPDKYQCSCPEGYSGPNCE
modifications: biotin on the C-terminal biotin acceptor peptide
B6: Notch1^NRRΔloop (domain or fragment)
chain: EEACELPECQVDAGNKVCNLQCNNHACGWDGGDCSLNFNDPWKNCTQSLQCWKYFSDGHCDSQCNSAGCLFDGFDCQLTEGQCNPLYDQYCKDHFSDGHCDQGCNSAECEWDGLDCAEHVPERLAAGTLVLVVLLPPDQLRNNSFHFLRELSHVLHTNVVFKRDAQGQQMIFPYYGDIRGSIVYLEIDNRQCVQSSSQCFQSATDVAAFLGALASLGSLNIPYKIEAVKSEPVE
B7: Notch1 full ectodomain (Notch1^fe), mouse (domain or fragment)
chain: ARGLRCSQPSGTCLNGGRCEVANGTEACVCSGAFVGQRCQDSNPCLSTPCKNAGTCHVVDHGGTVDYACSCPLGFSGPLCLTPLDNACLANPCRNGGTCDLLTLTEYKCRCPPGWSGKSCQQADPCASNPCANGGQCLPFESSYICRCPPGFHGPTCRQDVNECSQNPGLCRHGGTCHNEIGSYRCACRATHTGPHCELPYVPCSPSPCQNGGTCRPTGDTTHECACLPGFAGQNCEENVDDCPGNNCKNGGACVDGVNTYNCRCPPEWTGQYCTEDVDECQLMPNACQNGGTCHNTHGGYNCVCVNGWTGEDCSENIDDCASAACFQGATCHDRVASFYCECPHGRTGLLCHLNDACISNPCNEGSNCDTNPVNGKAICTCPSGYTGPACSQDVDECALGANPCEHAGKCLNTLGSFECQCLQGYTGPRCEIDVNECISNPCQNDATCLDQIGEFQCICMPGYEGVYCEINTDECASSPCLHNGHCMDKINEFQCQCPKGFNGHLCQYDVDECASTPCKNGAKCLDGPNTYTCVCTEGYTGTHCEVDIDECDPDPCHYGSCKDGVATFTCLCQPGYTGHHCETNINECHSQPCRHGGTCQDRDNSYLCLCLKGTTGPNCEINLDDCASNPCDSGTCLDKIDGYECACEPGYTGSMCNVNIDECAGSPCHNGGTCEDGIAGFTCRCPEGYHDPTCLSEVNECNSNPCIHGACRDGLNGYKCDCAPGWSGTNCDINNNECESNPCVNGGTCKDMTSGYVCTCREGFSGPNCQTNINECASNPCLNQGTCIDDVAGYKCNCPLPYTGATCEVVLAPCATSPCKNSGVCKESEDYESFSCVCPTGWQGQTCEVDINECVKSPCRHGASCQNTNGSYRCLCQAGYTGRNCESDIDDCRPNPCHNGGSCTDGINTAFCDCLPGFQGAFCEEDINECASNPCQNGANCTDCVDSYTCTCPVGFNGIHCENNTPDCTESSCFNGGTCVDGINSFTCLCPPGFTGSYCQYDVNECDSRPCLHGGTCQDSYGTYKCTCPQGYTGLNCQNLVRWCDSAPCKNGGRCWQTNTQYHCECRSGWTGVNCDVLSVSCEVAAQKRGIDVTLLCQHGGLCVDEGDKHYCHCQAGYTGSYCEDEVDECSPNPCQNGATCTDYLGGFSCKCVAGYHGSNCSEEINECLSQPCQNGGTCIDLTNSYKCSCPRGTQGVHCEINVDDCHPPLDPASRSPKCFNNGTCVDQVGGYTCTCPPGFVGERCEGDVNECLSNPCDPRGTQNCVQRVNDFHCECRAGHTGRRCESVINGCRGKPCKNGGVCAVASNTARGFICRCPAGFEGATCENDARTCGSLRCLNGGTCISGPRSPTCLCLGSFTGPECQFPASSPCVGSNPCYNQGTCEPTSENPFYRCLCPAKFNGLLCHILDYSFTGGAGRDIPPPQIEEACELPECQVDAGNKVCNLQCNNHACGWDGGDCSLNFNDPWKNCTQSLQCWKYFSDGHCDSQCNSAGCLFDGFDCQLTEGQCNPLYDQYCKDHFSDGHCDQGCNSAECEWDGLDCAEHVPERLAAGTLVLVVLLPPDQLRNNSFHFLRELSHVLHTNVVFKRDAQGQQMIFPYYGHEEELRKHPIKRSTVGWATSSLLPGTSGGRQRRELDPMDIRGSIVYLEIDNRQCVQSSSQCFQSATDVAAFLGALASLGSLNIPYKIEAVKSEPVE
B8: Jagged1 full ectodomain, wild type (Jagged1^fe,wt) (domain or fragment)
chain: ASGQFELEILSMQNVNGELQNGNCCGGVRNPGDRKCTRDECDTYFKVCLKEYQSRVTAGGPCSFGSGSTPVIGGNTFNLKASRGNDRNRIVLPFSFAWPRSYTLLVEAWDSSNDTIQPDSIIEKASHSGMINPSRQWQTLKQNTGIAHFEYQIRVTCDDHYYGFGCNKFCRPRDDFFGHYACDQNGNKTCMEGWMGPDCNKAICRQGCSPKHGSCKLPGDCRCQYGWQGLYCDKCIPHPGCVHGTCNEPWQCLCETNWGGQLCDKDLNYCGTHQPCLNRGTCSNTGPDKYQCSCPEGYSGPNCEIAEHACLSDPCHNRGSCKETSSGFECECSPGWTGPTCSTNIDDCSPNNCSHGGTCQDLVNGFKCVCPPQWTGKTCQLDANECEAKPCVNARSCKNLIASYYCDCLPGWMGQNCDININDCLGQCQNDASCRDLVNGYRCICPPGYAGDHCERDIDECASNPCLNGGHCQNEINRFQCLCPTGFSGNLCQLDIDYCEPNPCQNGAQCYNRASDYFCKCPEDYEGKNCSHLKDHCRTTTCEVIDSCTVAMASNDTPEGVRYISSNVCGPHGKCKSQSGGKFTCDCNKGFTGTYCHENINDCESNPCKNGGTCIDGVNSYKCICSDGWEGAHCENNINDCSQNPCHYGGTCRDLVNDFYCDCKNGWKGKTCHSRDSQCDEATCNNGGTCYDEVDTFKCMCPGGWEGTTCNIARNSSCLPNPCHNGGTCVVNGDSFTCVCKEGWEGPICTQNTNDCSPHPCYNSGTCVDGDNWYRCECAPGFAGPDCRININECQSSPCAFGATCVDEINGYQCICPPGHSGAKCHEVSGRSCITMGRVILDGAKWDDDCNTCQCLNGRVACSKVWCGPRPCRLHKSHNECPSGQSCIPVLDDQCFVRPCTGVGECRSSSLQPVKTKCTSDSYYQDNCANITFTFNKEMMSPGLTTEHICSELRNLNILKNVSAEYSIYIACEPSLSANNEIHVAISAEDIRDDGNPVKEITDKIIDLVSKRDGNSSLIAAVAEVRVQRRPLKNRTD

Key:
[1] = target: Jagged1^C2-EGF3,HA (mouse) (UniProt Q9QXX0); test: MST
[2] = target: the molecule itself; test: SEC-MALS
[3] = target: B5; test: SPR
[4] = target: Notch1^EGF33-NRR, C-terminally biotinylated SPR ligand (mouse) (UniProt Q01705); test: SPR
[5] = target: T1, Notch1^EGF33-NRR; test: SPR
[6] = target: B5; test: SPR; remark: listed apart in the source
[7] = target: the molecule itself; test: cross-linking
[8] = target: B7; test: cross-linking

Kd [1]: 500 nM
Molecule: Notch1^EGF33-NRR (from UniProt Q01705 1267-1717) (domain or fragment)

Molecule: B1
stoichiometry N [2]: 2

Molecule: B2
Kd [3]: 340 nM
Kd [4]: 290 nM

Molecule: B3
Kd [3]: 930 nM
Kd [4]: 290 nM

Molecule: B4
Kd [5]: 115000 nM

Molecule: B5
binding result [5]: binds

Molecule: B6
Kd [6]: ~1000 nM

Molecule: B7
binding result [7]: binds

Molecule: B8
binding result [8]: binds
